The text below walks through data of patent US20050287518A1.

A word on the Kd: it is the equilibrium constant for the complex coming apart.

The target in experiment [1] is GFP-Rac1 fusion (EGFP mutant, 6His construct) bound to GTPγS [GFP: P42212]. The experiment can be described thus: FRET in solution at saturating (1 micromolar) Alexa-PBD, GFP-Rac1 loaded with varied GTPγS.
The target is the same in experiment [2]. The experiment can be described thus: FRET titration in solution: 200 nM GFP-Rac1-GTPγS, varied Alexa-PBD, Alexa/GFP emission ratio fit to Y=A*X/(Kd+X).

Regarding “Alexa-PBD (PBD, fragment of human PAK1, residues 65-150, with a single cysteine added in the penultimate N-terminal position, C-terminal 6His fusion, labeled with Alexa 546) (from UniProt Q13153 65-150)”, the fold change of corrected Alexa/GFP emission ratio in experiment [1] came to 4 fold. The Kd in experiment [2] stood at 1100 nM.
